According to article PMC4679584:

Target: tumor suppressor gene 101 (TSG101) tagged with eYFP (UniProt Q99816)
Assay: FRET or BRET

UniProt Q99816, sequence (Q99816 whole entry): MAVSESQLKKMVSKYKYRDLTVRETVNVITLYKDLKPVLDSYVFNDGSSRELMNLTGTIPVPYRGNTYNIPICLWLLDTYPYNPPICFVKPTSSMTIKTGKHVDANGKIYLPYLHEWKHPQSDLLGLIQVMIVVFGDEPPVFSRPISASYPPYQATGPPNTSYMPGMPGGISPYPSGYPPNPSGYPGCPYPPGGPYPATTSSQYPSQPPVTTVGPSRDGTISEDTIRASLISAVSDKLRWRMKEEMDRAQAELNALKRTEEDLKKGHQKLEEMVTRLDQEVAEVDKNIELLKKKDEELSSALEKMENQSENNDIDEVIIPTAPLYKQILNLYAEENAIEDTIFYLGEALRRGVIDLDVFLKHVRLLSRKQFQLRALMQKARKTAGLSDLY

Q: Which FRET efficiency does the source give for “wild-type HEV ORF3 protein (Kernow-C1 P6, genotype 3) tagged with eCFP (natural protein)” here?
A: 21.5%
